Source: publication PMC7159914

Legend:
[1] = target: rotavirus (RV) A VP3, full-length recombinant (rotavirus A); assay: SEC + AUC
[2] = target: rotavirus (RV) A VP3, full-length recombinant (rotavirus A); assay: crystal structure
[3] = target: rotavirus (RV) A VP3, full-length recombinant (rotavirus A); assay: cryo-EM structure

Measured: stoichiometry N

rotavirus (RV) A VP3, full-length recombinant (enzyme)
4: all assays above
